From IntAct's records for PubMed 24843023

B1: AP-1 complex subunit mu-1 (Mus musculus), P35585 (parent)
chain: MSASAVYVLDLKGKVLICRNYRGDVDMSEVEHFMPILMEKEEEGMLSPILAHGGVRFMWIKHNNLYLVATSKKNACVSLVFSFLYKVVQVFSEYFKELEEESIRDNFVIIYELLDELMDFGYPQTTDSKILQEYITQEGHKLETGAPRPPATVTNAVSWRSEGIKYRKNEVFLDVIEAVNLLVSANGNVLRSEIVGSIKMRVFLSGMPELRLGLNDKVLFDNTGRGKSKSVELEDVKFHQCVRLSRFENDRTISFIPPDGEFELMSYRLNTHVKPLIWIESVIEKHSHSRIEYMVKAKSQFKRRSTANNVEIHIPVPNDADSPKFKTTVGSVKWVPENSEIVWSVKSFPGGKEYLMRAHFGLPSVEAEDKEGKPPISVKFEIPYFTTSGIQVRYLKIIEKSGYQALPWVRYITQNGDYQLRTQ
B2: Bone marrow stromal antigen 2 (Homo sapiens), Q10589 (parent)
chain: MASTSYDYCRVPMEDGDKRCKLLLGIGILVLLIIVILGVPLIIFTIKANSEACRDGLRAVMECRNVTHLLQQELTEAQKGFQDVEAQAATCNHTVMALMASLDAEKAQGQKKVEELEGEITTLNHKLQDASAEVERLRRENQVLSVRIADKKYYPSSQDSSSAAAPQLLIVLLGLSALLQ
partner: B1 chain
B3: Protein Vpu (Human immunodeficiency virus type 1 group M subtype B (isolate SF162)), P19554 (parent)
chain: MQPLQILAIVALVVAAIIAIVVWTIVYIEYRKILRQRKIDRLIDRITERAEDSGNESEGDQEELSALVERGHLAPWDVDDL

Variants of: B1
Conditions: with bst2_human BST2, Q10589

Variant | effect of a mutation on the interaction
D174A | disrupting interaction

Variants of: B1
Conditions: with tgon3_rat Ttgn1, P19814
tgon3_rat Ttgn1, P19814, sequence (P19814 whole entry): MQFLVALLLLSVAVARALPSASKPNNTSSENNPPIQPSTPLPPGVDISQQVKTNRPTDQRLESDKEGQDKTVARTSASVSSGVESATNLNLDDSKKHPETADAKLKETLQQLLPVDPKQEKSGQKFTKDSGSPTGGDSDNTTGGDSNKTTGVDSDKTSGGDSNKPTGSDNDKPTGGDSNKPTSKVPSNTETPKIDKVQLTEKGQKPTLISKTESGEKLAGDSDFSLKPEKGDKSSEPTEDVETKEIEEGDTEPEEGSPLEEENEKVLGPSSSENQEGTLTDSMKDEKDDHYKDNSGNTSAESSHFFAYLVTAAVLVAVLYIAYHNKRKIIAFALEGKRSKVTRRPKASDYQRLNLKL

Variant | effect of a mutation on the interaction
D174A | disrupting interaction

Variants of: B2
Conditions: with ap1m1_mouse Ap1m1, P35585

Variant | effect of a mutation on the interaction
V11A | disrupting interaction
Y6A | disrupting interaction
Y8A | disrupting interaction
Y6A;Y8A | disrupting interaction

Variants of: B3
Conditions: with fbw1a_human BTRC

Variant | effect of a mutation on the interaction
S53N;S57N | decreasing interaction
